Reference: the Human Domainome abundance scans (Beltran et al. 2025)
± gives the uncertainty stated by the source.

B1: Connector enhancer of kinase suppressor of ras 2, residues 9 to 71; numbered along this chain, Q8WXI2 (parent)
chain: SKWSPSQVVDWMKGLDDCLQQYIKNFEREKISGDQLLRITHQELEDLGVSRIGHQELILEAVD
B2: SWI/SNF-related matrix-associated actin-dependent regulator of chromatin subfamily B member 1, residues 181 to 248; numbered along this chain, Q12824 (parent)
chain: SQPEVLVPIRLDMEIDGQKLRDAFTWNMNEKLMTPEMFSEILCDDLDLNPLTFVPAIASAIRQQIESY

Variants of: B1
Assay: abundance fitness (aPCA) (normalised: wild type 0, dead -1); higher = more abundant; growth selection in yeast, the domain comes from the species named
Settings: Homo sapiens

Abundance fitness of substitutions, site by site:
W3: A -0.653 ± 0.085, D -0.393 ± 0.061, C -0.713 ± 0.12
S1: T -0.198 ± 0.04, G -0.134 ± 0.052, W -0.22 ± 0.045, V -0.015 ± 0.056, F -0.13 ± 0.058, D -0.028 ± 0.059, P -0.653 ± 0.068, C -0.07 ± 0.048, A -0.2 ± 0.046, E -0.283 ± 0.31, I 0.038 ± 0.057, L -0.154 ± 0.036, K 0.015 ± 0.039, N 0.063 ± 0.053
K2: G -0.059 ± 0.041, W -0.291 ± 0.079, L -0.041 ± 0.038, V -0.133 ± 0.034, M -0.121 ± 0.11, I -0.09 ± 0.027, E -0.29 ± 0.14, C -0.084 ± 0.029, P -0.167 ± 0.073, H 0.047 ± 0.047, Y -0.012 ± 0.033, N -0.049 ± 0.034, S -0.003 ± 0.025, F -0.025 ± 0.018, R -0.325 ± 0.052, T 0.015 ± 0.03, A -0.239 ± 0.043, D -0.053 ± 0.033

Variants of: B2
Assay: as above
Settings: Homo sapiens

Abundance fitness: each site, then its substitutions
A60: K -0.214 ± 0.068, Y -0.637 ± 0.11, Q 0.068 ± 0.049, W -0.71 ± 0.22, L -0.72 ± 0.082, T -0.081 ± 0.043, V -0.286 ± 0.047, P -0.974 ± 0.17, N -0.28 ± 0.092, R -0.285 ± 0.05, F -0.725 ± 0.17, G -0.528 ± 0.078, H -0.311 ± 0.066, C -0.068 ± 0.082, E 0.085 ± 0.089, S 0.076 ± 0.03
Q64: I -0.898 ± 0.11, T -0.658 ± 0.086, K -0.97 ± 0.25, E -0.338 ± 0.068, L -0.52 ± 0.056, R -0.709 ± 0.061, Y -0.795 ± 0.45, C -0.863 ± 0.12, P -0.878 ± 0.12, H -0.741 ± 0.12, S -0.563 ± 0.052, M -0.904 ± 0.18, A -0.354 ± 0.083, W -0.618 ± 0.097, V -0.941 ± 0.1, D -1.22 ± 0.4, F -0.584 ± 0.082
T52: L -0.163 ± 0.14, Q -0.215 ± 0.1, F -0.412 ± 0.26, S -0.14 ± 0.17, K 0.189 ± 0.071, G -0.634 ± 0.14, H -0.104 ± 0.22, V -0.005 ± 0.095, D -0.168 ± 0.31, I -0.417 ± 0.4, C -0.31 ± 0.24, R -0.21 ± 0.057
D44: Q -0.028 ± 0.11, L -0.251 ± 0.11, K 0.177 ± 0.17, I -0.259 ± 0.17, N -0.403 ± 0.47, T -0.467 ± 0.28, M -0.473 ± 0.26, S 0.043 ± 0.1, V -0.008 ± 0.27
V54: I -0.241 ± 0.077, G 0.144 ± 0.14, L -0.684 ± 0.21, S -0.324 ± 0.14, M -0.335 ± 0.28, R -0.22 ± 0.16, F -0.739 ± 0.32, A -0.119 ± 0.44, P -0.593 ± 0.23
L46: S -0.694 ± 0.1, N -0.271 ± 0.17, A -0.125 ± 0.051, K 0.211 ± 0.075, P -1.08 ± 0.23, F -0.091 ± 0.09, W 0.017 ± 0.069, Y -0.038 ± 0.099, Q -0.162 ± 0.064, G -0.37 ± 0.12, V -0.746 ± 0.12, R 0.161 ± 0.046, H 0.318 ± 0.14, T -0.954 ± 0.24, C -0.231 ± 0.2, E -0.204 ± 0.13, M 0.05 ± 0.21
I61: M -0.461 ± 0.089, T -0.594 ± 0.16, C -0.956 ± 0.27, S -1.06 ± 0.17, D -0.827 ± 0.29, V -0.536 ± 0.1, K -0.75 ± 0.17, R -0.878 ± 0.12, L -0.725 ± 0.26, W -0.989 ± 0.25, A -0.763 ± 0.1, G -0.854 ± 0.15
E66: D -0.073 ± 0.045, C -0.385 ± 0.098, P -0.919 ± 0.44, S -0.06 ± 0.039, L -0.229 ± 0.05, K -0.106 ± 0.059, A 0.096 ± 0.049, N -0.227 ± 0.11, G -0.316 ± 0.075, H -0.45 ± 0.3, I -0.276 ± 0.13, T -0.169 ± 0.073, Q -0.432 ± 0.18, Y -0.09 ± 0.068, V -0.142 ± 0.099, M -0.215 ± 0.12, W -0.313 ± 0.072
L51: E 0.185 ± 0.089, T -0.174 ± 0.12, D 0.125 ± 0.18, H 0.002 ± 0.083, V 0.042 ± 0.11, A 0.041 ± 0.088, S 0.044 ± 0.065
A56: V -0.319 ± 0.052, M -0.416 ± 0.11, P -0.564 ± 0.16, W -0.628 ± 0.086, D -0.552 ± 0.11, N -0.654 ± 0.19, I -0.375 ± 0.11, Y -0.421 ± 0.092, Q -0.095 ± 0.12, F -0.623 ± 0.16, G -0.523 ± 0.049, S -0.278 ± 0.03, H -0.123 ± 0.081, T -0.566 ± 0.11, E -0.134 ± 0.049, C -0.384 ± 0.066, K -0.041 ± 0.13
A58: S -0.072 ± 0.17
N49: W -0.783 ± 0.13, E -0.292 ± 0.053, C -0.356 ± 0.075, Y -0.666 ± 0.11, T -0.874 ± 0.076, L -0.924 ± 0.079, K -0.824 ± 0.13, V -0.814 ± 0.076, G -0.735 ± 0.11, M -0.846 ± 0.13, F -0.923 ± 0.12, H -0.355 ± 0.14, I -0.932 ± 0.23, S -0.498 ± 0.058, Q -0.458 ± 0.055, R -0.789 ± 0.09, D -0.057 ± 0.046, P -0.097 ± 0.068
I65: V -0.232 ± 0.11, G -1.05 ± 0.23, P -0.689 ± 0.26, Q -0.852 ± 0.22, T -0.141 ± 0.11, E -0.994 ± 0.41, C 0.036 ± 0.24, L -0.069 ± 0.12, M -0.477 ± 0.13, W -0.817 ± 0.16, R -0.543 ± 0.14
D47: W -0.507 ± 0.12, G 0.053 ± 0.038, P -0.799 ± 0.16, S -0.101 ± 0.048, V -0.542 ± 0.073, N -0.107 ± 0.069, L -0.425 ± 0.056, C -0.305 ± 0.057, K 0.093 ± 0.063, Y -0.401 ± 0.12, T -0.37 ± 0.059, M -0.265 ± 0.05, H -0.018 ± 0.053
S67: H -0.089 ± 0.057, R 0.039 ± 0.035, I -0.078 ± 0.28, T -0.101 ± 0.071, V -0.098 ± 0.058, M -0.103 ± 0.13, A 0.046 ± 0.072, D -0.055 ± 0.12, E -0.011 ± 0.074, C 0.003 ± 0.052, F -0.06 ± 0.066, P -0.055 ± 0.045, W -0.234 ± 0.083, G -0.012 ± 0.039, Y -0.179 ± 0.12, K -0.2 ± 0.14, N 0.082 ± 0.063
D45: H -0.143 ± 0.39, G -0.185 ± 0.26, R 0.193 ± 0.15, Q -0.284 ± 0.48
F53: L -0.813 ± 0.34
P55: T 0.479 ± 0.38
R62: P -0.718 ± 0.2, I -0.824 ± 0.21, W -0.75 ± 0.18, S -0.386 ± 0.054, N -0.256 ± 0.083, K -0.043 ± 0.047, F -0.69 ± 0.37, M -0.619 ± 0.11, L -0.553 ± 0.075, Q -0.192 ± 0.083, T -0.3 ± 0.053, H -0.239 ± 0.14, C -0.629 ± 0.15, Y -0.119 ± 0.45, A -0.66 ± 0.4
L48: A -0.857 ± 0.1, R -0.989 ± 0.21, P -0.873 ± 0.18, K -0.651 ± 0.12, Y -0.649 ± 0.21, N -0.664 ± 0.17, S -0.659 ± 0.072, H -0.722 ± 0.18, D -0.785 ± 0.2, V -0.554 ± 0.071, W -0.888 ± 0.18, C -0.374 ± 0.079, E -0.678 ± 0.16, F -0.656 ± 0.17, I -0.147 ± 0.14, G -0.66 ± 0.077
Y68: T -0.444 ± 0.15, W 0.165 ± 0.073, K -0.47 ± 0.17, F -0.183 ± 0.18, D -0.521 ± 0.12, A -0.127 ± 0.051, H -0.093 ± 0.092, V -0.373 ± 0.11, L -0.536 ± 0.15, P -0.473 ± 0.13, S -0.427 ± 0.069, N -0.384 ± 0.22, I -0.541 ± 0.14, C -0.643 ± 0.21, Q -0.185 ± 0.086, G -0.661 ± 0.13, M -0.641 ± 0.29
I57: G -0.781 ± 0.1, E -0.749 ± 0.21, L -0.76 ± 0.068, A -0.781 ± 0.13, N -0.542 ± 0.13, M -0.417 ± 0.068, R -0.912 ± 0.11, F -0.957 ± 0.15, S -0.802 ± 0.096, H -1.03 ± 0.2, K -0.931 ± 0.14, P -1.04 ± 0.28, Q -0.779 ± 0.18, T -0.855 ± 0.14, W -0.615 ± 0.2, V -0.177 ± 0.056, Y -0.713 ± 0.19
P50: I -1 ± 0.35, N -0.567 ± 0.1, V -0.772 ± 0.085, F -0.285 ± 0.14, H -0.039 ± 0.082, K 0.138 ± 0.053, L -0.933 ± 0.17, D -0.986 ± 0.2, T -0.364 ± 0.093, Y -0.714 ± 0.15, A -0.292 ± 0.06, S -0.389 ± 0.046, G -0.77 ± 0.047, C -0.751 ± 0.49, M -1.03 ± 0.43, E -0.818 ± 0.13, W -0.845 ± 0.14, R 0.021 ± 0.045, Q -0.508 ± 0.15
Q63: V -0.293 ± 0.043, L -0.276 ± 0.045, R -0.115 ± 0.049, E -0.163 ± 0.11, K -0.067 ± 0.073, M -0.257 ± 0.084, S 0.011 ± 0.052, Y 0.105 ± 0.2, W -0.467 ± 0.078, F -0.232 ± 0.1, P -0.758 ± 0.2, T -0.043 ± 0.055, C -0.129 ± 0.066, N -0.038 ± 0.075, A -0.057 ± 0.043, D -0.019 ± 0.082
